Test results taken from patent publication US20200199241A1 (Chugai, published 2020).

T1: FcγRIIb (human, UniProt P31994 43-217, limits assumed)
T1 construct: also called FcgRIIb; FcγIIB
T1 sequence: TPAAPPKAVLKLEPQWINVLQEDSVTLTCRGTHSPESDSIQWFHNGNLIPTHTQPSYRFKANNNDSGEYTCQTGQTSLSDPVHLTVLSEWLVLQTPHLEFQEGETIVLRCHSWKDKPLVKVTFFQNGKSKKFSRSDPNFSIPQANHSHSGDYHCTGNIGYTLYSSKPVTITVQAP

T2: FcγRIIa type R (human, UniProt P12318 36-217)
T2 construct: also called FcγRIIaR; FcgRIIaR
T2 chain: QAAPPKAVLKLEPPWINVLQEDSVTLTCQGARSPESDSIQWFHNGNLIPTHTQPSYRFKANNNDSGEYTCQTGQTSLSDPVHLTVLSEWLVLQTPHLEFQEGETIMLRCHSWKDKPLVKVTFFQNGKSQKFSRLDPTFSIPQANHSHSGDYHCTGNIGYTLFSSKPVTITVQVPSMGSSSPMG

T3: FcγRIIa type H (human, UniProt P12318 36-217)
T3 construct: also called FcγRIIaH; FcγRIIH
T3 sequence: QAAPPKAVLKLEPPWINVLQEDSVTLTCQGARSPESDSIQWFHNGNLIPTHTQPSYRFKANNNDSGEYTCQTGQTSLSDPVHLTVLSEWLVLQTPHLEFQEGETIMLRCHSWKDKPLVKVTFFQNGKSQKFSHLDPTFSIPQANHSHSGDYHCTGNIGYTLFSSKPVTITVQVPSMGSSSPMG

T4: FcγRIIb (human, UniProt P31994 43-217, limits assumed)
T4 construct: also called FcγIIB; CD32
T4 sequence: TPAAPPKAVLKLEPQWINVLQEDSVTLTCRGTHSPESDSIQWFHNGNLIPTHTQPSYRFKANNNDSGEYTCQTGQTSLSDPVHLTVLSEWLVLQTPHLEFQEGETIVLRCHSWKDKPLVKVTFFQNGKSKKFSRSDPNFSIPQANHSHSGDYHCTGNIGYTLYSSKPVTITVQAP

T5: FcγRIIa type R (human, UniProt P12318 36-217)
T5 construct: also called FcγRIIaR; FcγRIIa(R)
T5 chain: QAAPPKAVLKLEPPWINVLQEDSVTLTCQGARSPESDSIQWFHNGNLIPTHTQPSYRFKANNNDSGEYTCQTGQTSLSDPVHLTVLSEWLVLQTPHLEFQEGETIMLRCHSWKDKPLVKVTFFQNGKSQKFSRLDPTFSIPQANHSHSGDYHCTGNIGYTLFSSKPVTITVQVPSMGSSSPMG

T6: FcγRIIa type H (human, UniProt P12318 36-217)
T6 construct: also called FcγRIIaH; FcγRIIa(H)
T6 sequence: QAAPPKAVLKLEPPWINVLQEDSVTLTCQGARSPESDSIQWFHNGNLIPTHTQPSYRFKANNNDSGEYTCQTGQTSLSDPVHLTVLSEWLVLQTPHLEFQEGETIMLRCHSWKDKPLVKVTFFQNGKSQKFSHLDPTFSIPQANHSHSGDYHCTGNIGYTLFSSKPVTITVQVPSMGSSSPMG


What was measured:
[1] = molecular target: T7, FcγRIa (human, UniProt P12314 16-292, limits assumed); assay: SPR (Biacore), FcγR over captured antibody
T7 construct: also called FcgRIa; CD64
T7 sequence (P12314 16-292 limits assumed): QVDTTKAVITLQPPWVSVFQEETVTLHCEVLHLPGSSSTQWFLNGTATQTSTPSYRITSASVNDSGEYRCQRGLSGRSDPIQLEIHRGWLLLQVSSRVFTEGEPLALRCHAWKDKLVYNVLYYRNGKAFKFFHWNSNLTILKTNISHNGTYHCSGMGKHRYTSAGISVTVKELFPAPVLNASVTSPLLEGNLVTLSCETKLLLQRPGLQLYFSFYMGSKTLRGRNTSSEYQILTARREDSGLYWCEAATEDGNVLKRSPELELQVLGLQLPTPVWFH

[2] = molecular target: T8, FcγRIIIa type V (human, UniProt P08637 17-208, limits assumed); assay: SPR (Biacore), FcγR over captured antibody
T8 construct: also called FcγRIIIaV; FcgRIIIaV
T8 sequence (P08637 other isoform, or with tags, fused parts or gaps limits assumed): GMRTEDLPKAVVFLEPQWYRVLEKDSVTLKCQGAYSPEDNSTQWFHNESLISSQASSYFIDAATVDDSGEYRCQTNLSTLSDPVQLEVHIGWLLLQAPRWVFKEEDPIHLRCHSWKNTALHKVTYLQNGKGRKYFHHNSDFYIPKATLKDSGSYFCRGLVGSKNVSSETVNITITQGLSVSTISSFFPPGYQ

[3] = molecular target: T1, FcγRIIb; assay: SPR (Biacore), FcγR over captured antibody
[4] = molecular target: T2, FcγRIIa type R; assay: SPR (Biacore), FcγR over captured antibody
[5] = molecular target: T3, FcγRIIa type H; assay: SPR (Biacore), FcγR over captured antibody
[6] = molecular target: T4, FcγRIIb; assay: ratio of SPR KD values, parent IL6R-B3/IL6R-L
From the text: (§1) Furthermore, KD(IIaR)/KD(IIb) and KD(IIaH)/KD(IIb) in the table respectively represent the value obtained by dividing the KD value of each variant for FcγRIIaR by the KD value of each variant for FcγRIIb, and the value obtained by dividing the KD value of each variant for FcγRIIaH by the KD value of each variant for FcγRIIb. KD(IIb) of the parent polypeptide/KD(IIb) of the altered polypeptide refers to the value obtained by dividing the KD value of the parent polypeptide for FcγRIIb by the KD value of each variant for FcγRIIb.

[7] = molecular target: T4, FcγRIIb; assay: SPR (Biacore); KD for FcγRIIaH divided by KD for FcγRIIb of the same antibody; column head in Table 52-1
From the text: as §1

[8] = molecular target: T9, FcγRIIIa type V (human, UniProt P08637 17-208, limits assumed); assay: SPR (Biacore), method of Example 14
T9 construct: also called FcγRIIIaV; FcγRIIIa(V)
T9 sequence (P08637 17-208 F176V limits assumed): as the sequence (P08637 other isoform, or with tags, fused parts or gaps limits assumed) above, with S179A counted along it

[9] = molecular target: T10, FcγRIa (human, UniProt P12314 16-292, limits assumed); assay: SPR (Biacore), method of Example 14
T10 construct: also called CD64
T10 sequence (P12314 16-292 limits assumed): as the sequence (P12314 16-292 limits assumed) above

[10] = molecular target: T5, FcγRIIa type R; assay: SPR (Biacore), method of Example 14
[11] = molecular target: T4, FcγRIIb; assay: SPR (Biacore), method of Example 14
[12] = molecular target: T6, FcγRIIa type H; assay: SPR (Biacore), method of Example 14
[13] = molecular target: T4, FcγRIIb; assay: SPR (Biacore); KD for FcγRIIaR divided by KD for FcγRIIb of the same antibody; column head in Table 52-1
From the text: as §1

| Binder | Kd [1] | Kd [2] | Kd [3] | Kd [4] | Kd [5] | KD(IIb) of the parent polypeptide/KD(IIb) of altered polypeptide [6] | KD(IIaH)/KD(IIb) [7] | Kd [8] | Kd [9] | Kd [10] | Kd [11] | Kd [12] | KD(IIaR)/KD(IIb) [13] |
| --- | --- | --- | --- | --- | --- | --- | --- | --- | --- | --- | --- | --- | --- |
| IL6R-BP120/IL6R-L (antibody, human IgG1, IgG1; Fc variant of IL6R-B3; copies: 2 + 2) heavy: QVQLQESGPGLVKPSETLSLTCAVSGHSISHDHAWSWVRQPPGEGLEWIGFISYSGITNYNPSLQGRVTISRDNSKNTLYLQMNSLRAEDTAVYYCARSLARTTAMDYWGEGTLVTVSSASTKGPSVFPLAPSSKSTSGGTAALGCLVKDYFPEPVTVSWNSGALTSGVHTFPAVLQSSGLYSLSSVVTVPSSSLGTQTYICNVNHKPSNTKVDKKVEPKSCDKTHTCPPCPAPELLGGDSVFLFPPKPKDTLMISRTPEVTCVVVDVSHEDPEVKFNWYVDGVEVHNAKTKPREEQYNSTYRVVSVLTVLHQDWLNGKEYKCKVSNEALPAPIEKTISKAKGQPREPQVYTLPPSRDELTKNQVSLTCLVKGFYPSDIAVEWESNGQPENNYKTTPPVLDSDGSFFLYSKLTVDKSRWQQGNVFSCSVMHEALHNHYTQESLSLSP light: DIQMTQSPSSLSASVGDRVTITCRASQDISSYLNWYQQKPGKAPKLLIYYTSRLHSGVPSRFSGSGSGTDFTFTISSLQPEDIATYYCQQGNTLPYTFGQGTKVEIK | 6.6 nM | 79000 nM | 1000 nM | 9600 nM | 65000 nM |  |  |  |  |  |  |  |  |
| IL6R-BP191/IL6R-L (antibody, human IgG1, Anti-IL-6R human IgG1 variant; copies: 2 + 2) heavy: QVQLQESGPGLVKPSETLSLTCAVSGHSISHDHAWSWVRQPPGEGLEWIGFISYSGITNYNPSLQGRVTISRDNSKNTLYLQMNSLRAEDTAVYYCARSLARTTAMDYWGEGTLVTVSSASTKGPSVFPLAPSSKSTSGGTAALGCLVKDYFPEPVTVSWNSGALTSGVHTFPAVLQSSGLYSLSSVVTVPSSSLGTQTYICNVNHKPSNTKVDKKVEPKSCDKTHTCPPCPAPDLLGGDSVFLFPPKPKDTLMISRTPEVTCVVVDVSDEDGEVKFNWYVDGVEVHNAKTKPREEQYNSTYRVVSVLTVLHQDWLNGKEYKCKVSNAALPKPIEKTISKAKGQPREPQVYTLPPSRDELTKNQVSLTCLVKGFYPSDIAVEWESNGQPENNYKTTPPVLDSDGSFFLYSKLTVDKSRWQQGNVFSCSVMHEALHNHYTQESLSLSP light: DIQMTQSPSSLSASVGDRVTITCRASQDISSYLNWYQQKPGKAPKLLIYYTSRLHSGVPSRFSGSGSGTDFTFTISSLQPEDIATYYCQQGNTLPYTFGQGTKVEIK |  |  |  |  |  | 21.2 fold | 185 | 49000 nM | 4 nM | 3000 nM | 150 nM | 27000 nM | 20.3 |
| IL6R-BP126/IL6R-L (antibody, human IgG1, IgG1; Fc variant of IL6R-B3; copies: 2 + 2) heavy: QVQLQESGPGLVKPSETLSLTCAVSGHSISHDHAWSWVRQPPGEGLEWIGFISYSGITNYNPSLQGRVTISRDNSKNTLYLQMNSLRAEDTAVYYCARSLARTTAMDYWGEGTLVTVSSASTKGPSVFPLAPSSKSTSGGTAALGCLVKDYFPEPVTVSWNSGALTSGVHTFPAVLQSSGLYSLSSVVTVPSSSLGTQTYICNVNHKPSNTKVDKKVEPKSCDKTHTCPPCPAPELLGGDSVFLFPPKPKDTLMISRTPEVTCVVVDVSHEDPEVKFNWYVDGVEVHNAKTKPREEQYNSTYRVVSVLTVLHQDWLNGKEYKCKVSNLALPAPIEKTISKAKGQPREPQVYTLPPSRDELTKNQVSLTCLVKGFYPSDIAVEWESNGQPENNYKTTPPVLDSDGSFFLYSKLTVDKSRWQQGNVFSCSVMHEALHNHYTQESLSLSP light: DIQMTQSPSSLSASVGDRVTITCRASQDISSYLNWYQQKPGKAPKLLIYYTSRLHSGVPSRFSGSGSGTDFTFTISSLQPEDIATYYCQQGNTLPYTFGQGTKVEIK | 7.4 nM | 56000 nM | 1400 nM | 11000 nM | 45000 nM |  |  |  |  |  |  |  |  |

The remaining lines, values ahead:

| Kd [1] | Kd [2] | Kd [3] | Kd [4] | Kd [5] | KD(IIb) of the parent polypeptide/KD(IIb) of altered polypeptide [6] | KD(IIaH)/KD(IIb) [7] | Kd [8] | Kd [9] | Kd [10] | Kd [11] | Kd [12] | KD(IIaR)/KD(IIb) [13] | Binder |
| --- | --- | --- | --- | --- | --- | --- | --- | --- | --- | --- | --- | --- | --- |
|  |  |  |  |  | 44.5 fold | 105 | 36000 nM | 63 nM | 880 nM | 69 nM |  | 12.6 | IL6R-BP185/IL6R-L (antibody, human IgG1, Anti-IL-6R human IgG1 variant; copies: 2 + 2) heavy: QVQLQESGPGLVKPSETLSLTCAVSGHSISHDHAWSWVRQPPGEGLEWIGFISYSGITNYNPSLQGRVTISRDNSKNTLYLQMNSLRAEDTAVYYCARSLARTTAMDYWGEGTLVTVSSASTKGPSVFPLAPSSKSTSGGTAALGCLVKDYFPEPVTVSWNSGALTSGVHTFPAVLQSSGLYSLSSVVTVPSSSLGTQTYICNVNHKPSNTKVDKKVEPKSCDKTHTCPPCPAPDYLGDDSVFLFPPKPKDTLMISRTPEVTCVVVDVSHEDGEVKFNWYVDGVEVHNAKTKPREEQYNSTYRVVSVLTVLHQDWLNGKEYKCKVSNAALPKPIEKTISKAKGQPREPQVYTLPPSRDELTKNQVSLTCLVKGFYPSDIAVEWESNGQPENNYKTTPPVLDSDGSFFLYSKLTVDKSRWQQGNVFSCSVMHEALHNHYTQESLSLSP light: DIQMTQSPSSLSASVGDRVTITCRASQDISSYLNWYQQKPGKAPKLLIYYTSRLHSGVPSRFSGSGSGTDFTFTISSLQPEDIATYYCQQGNTLPYTFGQGTKVEIK |
| 49 nM | 58000 nM | 890 nM | 16000 nM | 37000 nM |  |  |  |  |  |  |  |  | IL6R-BP911/IL6R-L (antibody, human IgG1, IgG1; Fc variant of IL6R-B3; copies: 2 + 2) heavy: QVQLQESGPGLVKPSETLSLTCAVSGHSISHDHAWSWVRQPPGEGLEWIGFISYSGITNYNPSLQGRVTISRDNSKNTLYLQMNSLRAEDTAVYYCARSLARTTAMDYWGEGTLVTVSSASTKGPSVFPLAPSSKSTSGGTAALGCLVKDYFPEPVTVSWNSGALTSGVHTFPAVLQSSGLYSLSSVVTVPSSSLGTQTYICNVNHKPSNTKVDKKVEPKSCDKTHTCPPCPAPELLGGDSVFLFPPKPKDTLMISRTPEVTCVVVDVSHEDPEVKFNWYVDGVEVHNAKTKPREEQYNSTYRVVSVLTVLHQDWLNGKEYKCKVSNKALPKPIEKTISKAKGQPREPQVYTLPPSRDELTKNQVSLTCLVKGFYPSDIAVEWESNGQPENNYKTTPPVLDSDGSFFLYSKLTVDKSRWQQGNVFSCSVMHEALHNHYTQESLSLSP light: DIQMTQSPSSLSASVGDRVTITCRASQDISSYLNWYQQKPGKAPKLLIYYTSRLHSGVPSRFSGSGSGTDFTFTISSLQPEDIATYYCQQGNTLPYTFGQGTKVEIK |
|  |  |  |  |  | 12.9 fold | 62.5 | 56000 nM | 17 nM | 2600 nM | 240 nM | 15000 nM | 10.7 | IL6R-BP183/IL6R-L (antibody, human IgG1, Anti-IL-6R human IgG1 variant; copies: 2 + 2) heavy: QVQLQESGPGLVKPSETLSLTCAVSGHSISHDHAWSWVRQPPGEGLEWIGFISYSGITNYNPSLQGRVTISRDNSKNTLYLQMNSLRAEDTAVYYCARSLARTTAMDYWGEGTLVTVSSASTKGPSVFPLAPSSKSTSGGTAALGCLVKDYFPEPVTVSWNSGALTSGVHTFPAVLQSSGLYSLSSVVTVPSSSLGTQTYICNVNHKPSNTKVDKKVEPKSCDKTHTCPPCPAPDYLGGDSVFLFPPKPKDTLMISRTPEVTCVVVDVSHEDGEVKFNWYVDGVEVHNAKTKPREEQYNSTYRVVSVLTVLHQDWLNGKEYKCKVSNAALPKPIEKTISKAKGQPREPQVYTLPPSRDELTKNQVSLTCLVKGFYPSDIAVEWESNGQPENNYKTTPPVLDSDGSFFLYSKLTVDKSRWQQGNVFSCSVMHEALHNHYTQESLSLSP light: DIQMTQSPSSLSASVGDRVTITCRASQDISSYLNWYQQKPGKAPKLLIYYTSRLHSGVPSRFSGSGSGTDFTFTISSLQPEDIATYYCQQGNTLPYTFGQGTKVEIK |
